In one series the test system is HEK293A cells. The experiment in a line: Fluorescence imaging of FPs in HEK293A cells with chromophore addition or HO-1 expression. The class given is cell-based. The following applies: smURFP/TDsmURFP in HEK293A cells. From the text:
smURFP codons were optimized for human cell expression, and the gene was created by GenScript. smURFP, TDsmURFP (created from mammalian-optimized smURFP), IFP1.4 (mammalian-optimized form^35), IFP2.0 (mammalian-optimized form^46), and iRFP713 (mammalian-optimized form^36) were PCR amplified using Phusion High-Fidelity DNA Polymerase (NEB) with primers containing 5′ HindIII and 3′ XhoI restriction enzyme sites. HindIII-HF and XhoI (NEB)-digested PCR fragments were gel purified (Zymoclean Gel DNA Recovery Kit) and were ligated (T4 DNA Ligase, Life Technologies) into a similarly digested pCDNA3-IRES-eGFP vector (bicistronic to express two FPs in the same cell). For creation of HO-1-expressing mammalian vec-tors, the Synechocystis HO-1 was used, and the codons were not optimized for mammalian expression. Synechocystis HO-1 was directly amplified from the pBAD vector using primers containing 5′ BsiWI and 3′ XbaI restriction enzyme sites. pCDNA3 smURFP, TDsmURFP, IFP1.4, IFP2.0, or iRFP713-IRES-eGFP vectors were digested with BsiWI and XbaI (NEB), dephosphorylated (SAP, Roche), gel purified (Zymoclean Gel DNA Recovery Kit), and ligated (T4 DNA Ligase, Life Technologies) with similarly digested, purified HO-1 PCR fragment. For creation of smURFP fusions, smURFP was PCR amplified using Phusion High-Fidelity DNA Polymerase (NEB) with primers containing 5′ AgeI and 3′ NotI restriction enzyme sites for N-terminal fusions or with primers containing 5′ AgeI and 3′ BspEI restriction enzyme sites for C-terminal fusions. mGeos2-VEL-ManII-N-10 (Addgene 57551) and Dronpa-PDHA1-N-10 (Addgene 57292) vectors were digested with AgeI and NotI (NEB) and mCherry-αTubulin-C-18 (Addgene 55148) and tdTomato-LaminB1-10 (Addgene 58107) were digested with AgeI and BspEI, dephosphorylated (SAP, Roche), gel purified (Zymoclean Gel DNA Recovery Kit), and ligated (T4 DNA Ligase, Life Technologies) with similarly digested, purified smURFP PCR fragment. HEK293A (Invitrogen, Life Technologies), HT1080 (ATCC), and PC3 (ATCC) cells were grown in Dulbecco's Modified Eagle's medium (DMEM, Corning), supplemented with 10% FBS (Atlanta Biologicals)+1×penicillin—streptomycin (Fisher Scientific), which is referred to as growth media, on poly-D-lysine-coated glass-bottom culture dishes (MatTek, No. P35G-0-14-C). The HEK cell line is listed in the ICLAC and NCBI biosample databases and is commonly misidentified as the HeLa cell line. For expression of exogenous fluorescent proteins, there is no problem if there is a contaminating cell line because no endogenous biology or therapeutic results are being determined. HEK293A cells were purchased from Invitrogen (Life Technologies), and all experiments are derived from the same expanded frozen stock without cell line authentication or mycoplasma detection. Cells were transfected using 2 μg of circular DNA+5 μl Lipofectamine 2000 (Life Technologies) in 2 ml Opti-MEM (Life Technologies) for 4-5 h, transfection media was discarded, and prewarmed growth media was added. Chromophores (5 mM in DMSO) were added at indicated concentrations to growth media, warmed for 10-15 min at 37° C., and added to cells. For multiple timepoints, incubations were staggered to maintain equivalent incubation. Prior to imaging, cells were washed 1×2 ml growth media, 2×2 ml imaging solution, and imaged in 2 ml imaging solution. Fluorescence imaging was performed on a Zeiss Axiovert 200M inverted microscope controlled by SlideBook software. FPs were imaged with the following settings: eGFP, EX/EM=495(10)/535(25) nm, tdTomato EX/EM=540(25)/595(50) nm; mCherry and mCardinal, EX/EM=580(20)/653(95) nm; smURFP and TDsmURFP, EX/EX=628(40)/680(30) nm; and IFP1.4, IFP2.0, and iRFP713, EX/EM=665(45)/725(50) nm. […]

Series [1] in a line: FP purification and fluorescence characterization in vitro (spectra, extinction coefficient, quantum yield). It is filed as physicochemical. The following applies: for Molecular Brightnes Relative to smURFP / Emission Maximum / Excitation Maximum / Extinction Coefficient / Quantum Yield: Table 4; for Emission Maximum / Excitation Maximum / Extinction Coefficient / Quantum Yield: evolved APCα FPs. As to the method:
FP genes were expressed on a pBAD vector (Life Technologies) with a polyhistidine tag on the C terminus, cells were lysed with B-PER (Thermo Scientific), and purified using Ni-NTA (Qiagen) puri-fication. PCB (HO-1+PcyA) and BV (HO-1) incorporation in Escherichia coli was performed simultaneously during constitu-tively active FP expression. Extinction coefficient was determined by PCB or BV absorbance as described35,36 (Table 3, smURFP+BV and TDsmURFP+BV, and Table 2) or calculated for the apoproteins by determining the protein concentration by the BCA protein assay (Pierce), and a specific chromo-phore concentration was added (specified in the Purification of FP lacking chromophore and in vitro chromophore incorporation section) to get 1 and 2 chromophore species (Table 5, not including (Escherichia coli)). When FP chromophore (PCB or BV) was expressed in Escherichia coli, the PCB and BV Q band had absorbance that overlapped with detection of BCA or Bradford assay of 562 nm and 592 nm, respectively. We used the previously published protocols35,36, where there was no change of the BV absorbance at 390 nm when free in solution or attached to the FP. smURFP+BV denaturation with 1 M urea caused no change in the BV absorbance at 390 nm, but the Q band was reduced ˜20-fold. Therefore, the extinction coefficient of BV at 390 nm was used to calculate the concentration of holoprotein (FP+PCB or BV) concentration.
EX and EM spectra were obtained using SPEX Fluorolog fluorometer (Horiba). Absorbance spectra were obtained using UV-VIS Spectrophotometer Cary Eclipse (Varian) or UV-2700 (Shimadzu). Quantum yield was determined relative to Cy5. Incorporation rates of BV on 0.5 μM smURFP was performed by addition of smURFP to PBS alone or with 20% fetal bovine serum (FBS) and mixed by pipetting in a quartz cuvette. Chromophore was added last, mixed by pipetting, and fluorescence was recorded using SPEX Fluorolog fluorometer (Horiba). Photobleaching was characterized on bubbles of purified FP or Cy5 within mineral oil using light from a 150 W xenon arc lamp with 100% light through EX/EM=628(40)/680(30) nm for smURFP, TDsmURFP, and Cy5 or EX/EM=665 (45)/725 (50) nm for IFP 1.4 focused with a 40×, 1.2 numerical aperture C-Apochromat oil-immersion lens on a Zeiss Axiovert 200M inverted microscope. Photobleaching times were normalized to reflect an initial illumination intensity producing 1,000 photons per fluorescent molecule per second as previously described^37.
HO-1 was removed by digesting the pBAD vector (Life Technology) with MscI and PmeI (NEB). smURFP and TDsmURFP were expressed and purified as described above. No chromophore was present on smURFP and TDsmURFP (confirmed by UV, fluorescence imaging, and MS). For predominant fluorescent species+2 chromophores, a ten-fold excess of chromophore was added to smURFP and TDsmURFP. For predominant fluorescent species+1 chromophore, a quarter concentration of chromophore was added to smURFP and TDsmURFP. Chromophore was added in PBS+10% FBS at 37° C. overnight. smURFP+chromophore and TDsmURFP+chromophore were purified using NiNTA (Qiagen) to remove excess or noncovalently attached chromophore.

The test system of a further series is Escherichia coli. As to the kind of experiment: Fluorescence of FPs expressed in Escherichia coli. It is filed as cell-based. As to the method: TeAPCα gene (codons optimized for Escherichia coli) was made by GenScript. Mutations were placed by random mutagenesis using GeneMorphII Random Mutagenesis Kit (Agilent Technologies). Screens for mutants that fluoresce with PCB or BV were performed by subcloning into a pBAD vector (Life Technologies) that expressed cyanobacteria Synechocystis HO-1 and Synechocystis PcyA genes for PCB production and Synechocystis HO-1 only for BV production, as previously described^34. Libraries were expressed in TOP 10 Electrocompetent Escherichia coli cells (Life Technologies) with addition of 0.2% arabinose to LB agar plates (FPs were constitutively expressed in Escherichia coli). Fluorescence was imaged on plates using a BioSpectrum AC Imaging System (UVP) with EX/EM=628(40)/690(50) nm for FPs+PCB, EX/EM=685(40)/710LP nm for rounds 4 and 5 FPs+BV, and EX/EM=650(13)/690(50) nm for Cy5-like FPs+BV (rounds 6-12). At round 6, 5-10 of the brightest colonies on each plate were combined in LB+0.2% arabinose, grown ˜18 h, mixture of plasmid DNA was purified, and TOP10 cells were transformed and plated on LB agar plates+0.2% arabinose. Fluorescence was screened on plates (as described above), 10-20 of the brightest colonies were screened in liquid culture fluorescence (FIG. 7a-e), plasmid DNA was purified, and DNA was sequenced. The plasmid DNA of 2-3 of the brightest FPs was chosen for mutagenesis for the subsequent round. When choosing DNA for subsequent mutagenesis rounds, genes with increased and/or novel silent DNA mutations were chosen over other DNA that had the same DNA and/or protein sequence of the previous round. Site-specific mutagenesis was performed using QuikChange Lightning Mutagenesis Kit (Agilent Technologies) to create smURFP (C4S mutation) and smURFP C52S.

Where only a bound is given, the exact number is not on record here.

Take `C=CC1=C(C)/C(=C/C2=NC(=C\c3[nH]c(/C=C4/NC(=O)C(C)=C4C=C)c(C)c3CCC(=O)OC)/C(CCC(=O)OC)=C2C)NC1=O` [BVMe2, biliverdin dimethylester, reference compound]: in the series with HEK293A cells, the “chromophore concentration reaching saturation of fluorescence” value was no more than 2.5 µM.
For the molecule “phycocyanobilin [PCB, reference compound]”, the “chromophore concentration required for fluorescence similar to 2.5 μM BVMe2” value in the series with HEK293A cells is no less than 40 µM.

B1: R5-2: evolved APCα FP, SEQ ID NO: 6, with BV (protein)
chain: MKTCEQRVKIATLLSENEKKIVDKASQDLWRRRPDFIAPGGIAFSQRERALCLRDHRWYLHLITFCLLAGDKDPIESIGLIGIREMYNSLGVPVPGMMESIRCLKEASLSLLDEEDAKETAPYFDYIIKAMS
modifications: biliverdin chromophore; smRUFP Variant Polypeptide
Consider B1, for which, in series [1], the “extinction coefficient (EC)” value is given as 71,000 M^−1cm^−1; the “quantum yield (QY)” value is listed as 5.3%; the “red-shift of excitation and emission relative to R3-2+PCB” value is given as roughly 49 nm; the “Molecular Brightnes Relative to smURFP” value stood at 12%. In series [1], the “Emission Maximum” value is recorded as 696 nm, the “Excitation Maximum” value is reported as 671 nm, the “Extinction Coefficient” value is reported as 71,000 M^−1 cm^−1 and the “Quantum Yield” value worked out at 5.3%.

B2: R6-6: evolved APCα FP, SEQ ID NO: 7, with BV (protein)
chain: MKTCEQRVKIATLLSENEKKIVDKASQDLWRRRPDLIAPGGIAFSQRERALCLRDYGWYLHLITFCLLAGDKGPIESIGLIGIREMYNSLGVPVPGMMESIRCLKEASLSLLDEEDAKETAPYFDYIIKAMS
modifications: biliverdin chromophore; smRUFP Variant Polypeptide
In the case of B2, in series [1], the “extinction coefficient (EC)” value was 190,000 M^−1cm^−1, the “quantum yield (QY)” value worked out at 9.6%, the “Molecular Brightnes Relative to smURFP” value amounted to 56% and the “Emission Maximum” value is 676 nm. In series [1], the “Excitation Maximum” value worked out at 648 nm, the “Extinction Coefficient” value is 190,000 M^−1 cm^−1 and the “Quantum Yield” value stood at 9.6%.

B3: TeAPCα: Trichodesmium erythraeum allophycocyanin α-subunit, nonfluorescent parent protein, SEQ ID NO: 1 (protein)
chain: MKTGEQRVKIATLLSENEKKIVDKASQDLWRRRPDFIAPGGNAFGQRERALCLRDYGWYLRLITYGLLAGDKDPIESIGLIGVREMYNSLGVPVPGMVESIRCLKEASLSLLDEEDAKETAPYFDYIIQAMS
modifications: smRUFP Variant Polypeptide
For the molecule B3, the “fluorescence when expressed in E. coli (qualitative)” value in the series with Escherichia coli was “showed no fluorescence”.

B4: R2-1 + PCB: evolved APCα FP, SEQ ID NO: 3, with PCB (protein)
chain: MKTGEQRVKIATLLSENEKKIVDKASQDLWRRRPDFIAPGGIAFGQRERALCLRDYGWYLRLITFCLLAGDKDPIESIGLIGVREMYNSLGVPVPGMVESIRCLKEASLSLLDEEDAKETAPYFDYIIQAMS
modifications: phycocyanobilin chromophore; smRUFP Variant Polypeptide
With B4, in the series with Escherichia coli, the “fluorescence when expressed in E. coli (qualitative)” value is on record as “lacked fluorescence with BV”. The “fold brighter than R1+PCB” value in the series with Escherichia coli (expressed in E. coli) was determined as 27 fold. Further, in series [1], the “extinction coefficient (EC)” value is 65,000 M^−1cm^−1, the “quantum yield (QY)” value amounted to 7.2%, the “Molecular Brightnes Relative to smURFP” value was 14% and the “Emission Maximum” value is given as 648 nm. Besides, in series [1], the “Excitation Maximum” value was 626 nm, the “Extinction Coefficient” value is reported as 65,000 M^−1 cm^−1 and the “Quantum Yield” value turned out to be 7.2%.
